Values quoted from earlier work in publication PMC3218206 (Chemical biology & drug design, 2011).

Experiments:
[1] = biological target: Nrf2 14mer peptide (Homo sapiens); test: ITC
[2] = tested on: Keap1-Nrf2 complex

Row | Kd [1] [nM] | Substance | displacement of Nrf2 from Keap1-Nrf2 complex [2]
1 | 20 | Keap1 (from UniProt Q14145) | 
2 |  | LQLDEETGEFLPIQ | effectively
